From patent US20060078550

Target: human prothrombin, P00734

B1: recombinant His-tagged porcine fgl2 protein generated by pfgl2bv infection of insect cells (protein)
chain: MKLKLSNWCWLSSAVLAAYGFLVVANNETEEIKDEAAKDACPVRLESRGKCEEVGGCPYQVNLPPLTLQLPKQFGRIEEVFKEVQNLKEIVNSLKKTCQDCRLQADDNRDPGRNGLLSPGTGAPGEADDSRVRELENEVNKLSSDLKNAKEEIDGLQGRLEKLSLVNMNNIENYVDNKVANLTFAVNSLDGKCSSRCPSQEQIQSRPVQHLIYKDCSEYYTIGKRSSEIYRVTPDPKNSSFEVYCDMETMGGGWTVLQARLDGSTNFTRTWRDYKVGFGNLRREFWLGNDKIHLLTKSKDMILRIDLEDFNGIKLYALYDHFYVANEFLKYRLHIGNYNGTAGDALRFSKHYNHDMKYFTTPDRDNDRYPSGNCGLYYSSGWWFDACLSANLNGKYYNQKYRGVRNGIFWGTWPGISEAQPGGYRSSFKEAKMMIRPKYFKP
For B1, the “thrombin activity (chromogenic substrate Chromozym TH, change in OD 405 nm over time)” value was “A significant level of thrombin activity was generated by pfgl2bv-infected cell lysates in contrast to wild-type baculovirus-infected and uninfected controls”.
